Measurements as given in the Immune Epitope Database (IEDB).
pIC50, pKd: −log10 of the molar value.

Columns and labels:
[1] = molecular target: HLA-A*68:02; test: IEDB peptide-MHC binding, purified MHC/competitive/radioactivity; filed as Kd, often an IC50 or EC50 that approximates it; ≥ and ≤ were set here for values at or beyond the usual limits of such assays; details: source organism: Dengue virus 2 Jamaica/1409/1983
[2] = molecular target: HLA-B*57:01; test: as above
[3] = molecular target: HLA-B*58:01; test: as above
[4] = molecular target: HLA-B*53:01; test: as above; details: source organism: Dengue virus 3 Martinique/1243/1999
[5] = molecular target: HLA-A*01:01; test: IEDB peptide-MHC binding, purified MHC/competitive/fluorescence; filed as Kd, often an IC50 or EC50 that approximates it; ≥ and ≤ were set here for values at or beyond the usual limits of such assays
[6] = molecular target: HLA-B*08:01; test: as above
[7] = molecular target: HLA-B*18:01; test: IEDB peptide-MHC binding, purified MHC/direct/fluorescence; filed as Kd, often an IC50 or EC50 that approximates it; ≥ and ≤ were set here for values at or beyond the usual limits of such assays
[8] = molecular target: HLA-B*40:01; test: as above
[9] = molecular target: HLA-B*35:01; test: IEDB peptide-MHC binding, purified MHC/competitive/fluorescence; filed as Kd, often an IC50 or EC50 that approximates it; ≥ and ≤ were set here for values at or beyond the usual limits of such assays
[10] = molecular target: HLA-A*01:01; test: IEDB peptide-MHC binding, purified MHC/direct/fluorescence; filed as Kd, often an IC50 or EC50 that approximates it; ≥ and ≤ were set here for values at or beyond the usual limits of such assays
[11] = molecular target: HLA-A*02:01; test: as above
[12] = molecular target: HLA-A*03:01; test: as above
[13] = molecular target: HLA-A*24:02; test: as above
[14] = molecular target: HLA-A*26:01; test: as above
[15] = molecular target: HLA-B*07:02; test: as above
[16] = molecular target: HLA-B*08:01; test: as above
[17] = molecular target: HLA-B*08:02; test: as above
[18] = molecular target: HLA-B*15:01; test: as above
[19] = molecular target: HLA-B*27:05; test: as above
[20] = molecular target: HLA-B*44:02; test: as above
[21] = molecular target: HLA-B*46:01; test: as above
[22] = molecular target: HLA-B*58:01; test: as above
[23] = molecular target: HLA-C*12:03; test: as above
[24] = molecular target: HLA-A*02:01; test: IEDB peptide-MHC binding, purified MHC/competitive/fluorescence; filed as Kd, often an IC50 or EC50 that approximates it; ≥ and ≤ were set here for values at or beyond the usual limits of such assays
[25] = molecular target: HLA-C*03:03; test: IEDB peptide-MHC binding, purified MHC/direct/fluorescence; filed as Kd, often an IC50 or EC50 that approximates it; ≥ and ≤ were set here for values at or beyond the usual limits of such assays
[26] = molecular target: HLA-A*11:01; test: as above
[27] = molecular target: HLA-A*31:01; test: as above
[28] = molecular target: HLA-A*69:01; test: as above
[29] = molecular target: HLA-C*05:01; test: as above; details: source organism: Vaccinia virus Copenhagen
[30] = molecular target: HLA-B*15:17; test: as above; details: source organism: Giardia lamblia ATCC 50803
[31] = molecular target: HLA-B*57:01; test: as above; details: source organism: Giardia lamblia ATCC 50803
[32] = molecular target: HLA-B*46:01; test: IEDB peptide-MHC binding, purified MHC/competitive/fluorescence; filed as Kd, often an IC50 or EC50 that approximates it; ≥ and ≤ were set here for values at or beyond the usual limits of such assays; details: source organism: Giardia lamblia ATCC 50803
[33] = molecular target: HLA-A*03:01; test: as above; details: source organism: Escherichia coli
[34] = molecular target: HLA-B*15:01; test: as above; details: source organism: Escherichia coli
[35] = molecular target: HLA-A*68:02; test: as above; details: source organism: Burkholderia mallei GB8 horse 4
[36] = molecular target: HLA-B*39:01; test: as above; details: source organism: Yersinia pestis Nepal516
[37] = molecular target: HLA-A*11:01; test: IEDB peptide-MHC binding, purified MHC/competitive/fluorescence; ≥ and ≤ were set here for values at or beyond the usual limits of such assays
[38] = source organism: Dengue virus 2 Jamaica/1409/1983
[39] = source organism: Dengue virus 3 Martinique/1243/1999
[40] = source organism: Francisella tularensis subsp. holarctica LVS
[41] = source organism: Brucella abortus
[42] = source organism: Brucella suis 1330
[43] = source organism: Vaccinia virus Copenhagen
[44] = source organism: Escherichia coli F11
[45] = source organism: Giardia lamblia ATCC 50803
[46] = source organism: Yersinia pestis Nepal516
[47] = source organism: Escherichia coli O157:H7
[48] = source organism: Influenza A virus (A/Duck/Shantou/2088/01(H9N2))
[49] = source organism: Camelpox virus M-96
[50] = source organism: Mycobacterium tuberculosis C

## STSTWVTYGT
[1]
  pKd: 7.14
[2]; [38]
  pKd: 6.89
[3]; [38]
  pKd: 5.95

## MGITAEWLW
[4]
  pKd: 8.18
[2]; [39]
  pKd: 8.06
[3]; [39]
  pKd: 9.36

## STASSWSY
[5]; source organism: Influenza A virus (A/swine/Ohio/24366/2007(H1N1))
  pKd: ≤ 4.70

## FDERRNRYL
[6]; source organism: Influenza A virus (A/parakeet/Narita/92A/98(H9N2))
  pKd: ≤ 4.70

## MEVGNTVAF
[7]; [40]
  pKd: ≥ 9.00
[8]; [40]
  pKd: 8.80
[9]; source organism: Francisella tularensis subsp. tularensis FSC198
  pKd: 6.25

## LTDAFHGYH
[10]; [41]
  pKd: 7.12
[11]; [41]
  pKd: ≤ 4.70
[12]; [41]
  pKd: ≤ 4.70
[13]; [41]
  pKd: ≤ 4.70
[14]; [42]
  pKd: ≤ 4.70
[15]; [41]
  pKd: ≤ 4.70
[16]; [42]
  pKd: ≤ 4.70
[17]; [42]
  pKd: ≤ 4.70
[18]; [41]
  pKd: ≤ 4.70
[7]; [41]
  pKd: ≤ 4.70
[19]; [41]
  pKd: ≤ 4.70
[8]; [41]
  pKd: ≤ 4.70
[20]; [41]
  pKd: ≤ 4.70
[21]; [41]
  pKd: ≤ 4.70
[22]; [41]
  pKd: ≤ 4.70

## YLYASFCTV
[23]; [43]
  pKd: 7.47
[24]; [43]
  pKd: 8.49

## RTDAWSYPV
[25]; [44]
  pKd: 5.84
[5]; [44]
  pKd: 7.87
[24]; [44]
  pKd: 9.10

## SDRLHHDPL
[10]; [45]
  pKd: ≤ 4.70
[11]; [45]
  pKd: ≤ 4.70
[12]; [45]
  pKd: ≤ 4.70
[26]; [45]
  pKd: ≤ 4.70
[13]; [45]
  pKd: ≤ 4.70
[14]; [45]
  pKd: ≤ 4.70
[27]; [45]
  pKd: ≤ 4.70
[28]; [45]
  pKd: ≤ 4.70
[15]; [45]
  pKd: ≤ 4.70
[17]; [45]
  pKd: ≤ 4.70
[18]; [45]
  pKd: ≤ 4.70
[19]; [45]
  pKd: ≤ 4.70
[8]; [45]
  pKd: 6.55
[20]; [45]
  pKd: ≤ 4.70
[21]; [45]
  pKd: ≤ 4.70
[22]; [45]
  pKd: ≤ 4.70

## ITDITKYLY
[5]; source organism: Bacillus cereus G9241
  pKd: 8.68

## YLDYDTIYV
[29]
  pKd: ≥ 9.00
[24]; [43]
  pKd: 9.40

## IASPILFPF
[30]
  pKd: 8.82
[31]
  pKd: 7.83
[22]; [45]
  pKd: 8.52
[25]; [45]
  pKd: 8.52
[23]; [45]
  pKd: 6.23
[32]
  pKd: 7.03

## LSDICSGLQ
[5]; source organism: Escherichia coli O139:H28 str. E24377A
  pKd: ≤ 4.70

## ITDYIVGYY
[5]; source organism: Escherichia coli
  pKd: 8.52
[33]
  pKd: ≤ 4.70
[34]
  pKd: 5.62

## EYIWRSLKI
[13]; source organism: Entamoeba histolytica
  pKd: ≥ 9.00

## WAWPFAAVL
[23]; source organism: Burkholderia mallei GB8 horse 4
  pKd: ≥ 9.00
[35]
  pKd: 7.27

## MLMAASRAL
[25]; [46]
  pKd: 8.70
[23]; [46]
  pKd: 6.44
[24]; [46]
  pKd: 8.96
[6]; [46]
  pKd: 7.40
[9]; [46]
  pKd: 7.33
[36]
  pKd: 8.92

## AAVKAGASI
[15]; source organism: Mammarenavirus juninense
  pKd: 5.69
[25]; source organism: Mammarenavirus machupoense
  pKd: ≥ 9.00

## LPPERRQPF
[10]; [47]
  pKd: ≤ 4.70
[11]; [47]
  pKd: ≤ 4.70
[12]; [47]
  pKd: ≤ 4.70
[26]; [47]
  pKd: ≤ 4.70
[13]; [47]
  pKd: ≤ 4.70
[27]; [47]
  pKd: ≤ 4.70
[28]; [47]
  pKd: ≤ 4.70
[15]; [47]
  pKd: 6.42
[18]; [47]
  pKd: ≤ 4.70
[7]; [47]
  pKd: ≤ 4.70
[19]; [47]
  pKd: ≤ 4.70
[8]; [47]
  pKd: ≤ 4.70
[20]; [47]
  pKd: ≤ 4.70
[21]; [47]
  pKd: ≤ 4.70
[22]; [47]
  pKd: ≤ 4.70

## FIFPASKVY
[23]; source organism: Homo sapiens
  pKd: ≥ 9.00

## EEMATKADY
[10]; [48]
  pKd: ≤ 4.70
[11]; [48]
  pKd: ≤ 4.70
[12]; [48]
  pKd: ≤ 4.70
[26]; [48]
  pKd: ≤ 4.70
[13]; [48]
  pKd: ≤ 4.70
[27]; [48]
  pKd: ≤ 4.70
[28]; [48]
  pKd: ≤ 4.70
[15]; [48]
  pKd: ≤ 4.70
[16]; [48]
  pKd: ≤ 4.70
[17]; source organism: Influenza A virus (A/Taiwan/2/2006(H1N1))
  pKd: ≤ 4.70
[18]; source organism: Influenza A virus (A/Puerto Rico/8/34/Mount Sinai(H1N1))
  pKd: 5.84
[19]; [48]
  pKd: ≤ 4.70
[21]; [48]
  pKd: ≤ 4.70
[22]; [48]
  pKd: ≤ 4.70

## DRSDGYFLK
[37]; [43]
  pIC50: 4.50

## YFDDVTAFL
[11]; [49]
  pKd: 8.30
[28]; [49]
  pKd: 6.37
[29]
  pKd: 7.85

## ATLEDDRER
[37]; source organism: Variola virus
  pIC50: 4.31

## EQFWCGIPY
[18]; [50]
  pKd: 7.10
[9]; [50]
  pKd: 9.70
